Patent publication US20150216970A1 (Genentech, published 2015)

B1: Flag-ST-CD226 (N-terminus SNAP-tagged human CD226, expressed on transfected COS-7 or CHO cells) (receptor, UniProt Q15762 19-336, looked up)
chain: EEVLWHTSVPFAENMSLECVYPSMGILTQVEWFKIGTQQDSIAIFSPTHGMVIRKPYAERVYFLNSTMASNNMTLFFRNASEDDVGYYSCSLYTYPQGTWQKVIQVVQSDSFEAAVPSNSHIVSEPGKNVTLTCQPQMTWPVQAVRWEKIQPRQIDLLTYCNLVHGRNFTSKFPRQIVSNCSHGRWSVIVIPDVTVSDSGLYRCYLQASAGENETFVMRLTVAEGKTDNQYTLFVAGGTVLLLLFVISITTIIVIFLNRRRRRERRDLFTESWDTQKAPNNYRSPISTSQPTNQSMDDTREDIYVNYPTFSRRPKTRV
modifications: SNAP tag labelled with benzyl-guanine SNAP-Lumi-4Tb (donor) and/or SNAP-A647 (acceptor)
notes: whole, on cells; also called SNAP-tagged (ST) CD226; human ST-CD226; not shown: Flag tag; SNAP tag (ST)

Tests used:
TR-FRET on COS-7 cells = target: the molecule itself; test: TR-FRET on COS-7 cells
Procedure: Briefly, COS-7 cells were transfected with SNAP-tagged (ST) CD226 and HA-TIGIT using Lipofectamine 2000 (Life Technologies) and seeded in a white 96-well plate (Costar) at 100,000 cells per well. 24 hours later, cells were labeled with 100 nM of donor-conjugated benzyl-guanine SNAP-Lumi-4Tb (Cisbio) and 1 μM […] benzyl-guanine SNAP-A647 (New England Biolabs) diluted in DMEM 10% FCS for 1 h at 37° C., 5% CO2. After three washes in PBS, the FRET signal was recorded at 665 nm for 400 μs after a 60 μs delay following laser excitation at 343 nm using a Safire2 plate reader (Tecan). When the anti-TIGIT antibody was tested, the FRET signal was also recorded after a 15 min incubation. The FRET ratio was then calculated as the FRET intensity divided by the donor emission at 620 nm. The FRET intensity being: (signal at 665 nm from cells labeled with SNAP-donor and acceptor)—(signal at 665 nm from the same batch of transfected cells labeled with SNAP-donor only).

[1] = target: B1; test: TR-FRET on transfected COS-7 cells
[2] = target: T1, CD226-Flag (Flag-tagged human CD226, expressed in transfected COS 7 cells) (human, UniProt Q15762 19-336); test: anti-FLAG and anti-HA immunoprecipitation and immunoblot from COS-7 cells transfected with Flag-CD226 and HA-TIGIT
T1 construct: whole, on cells; This is the construct of the co-immunoprecipitation; Cells were lysed before the pull-down; also called Flag-CD226; not shown: Flag tag
T1 sequence (looked up): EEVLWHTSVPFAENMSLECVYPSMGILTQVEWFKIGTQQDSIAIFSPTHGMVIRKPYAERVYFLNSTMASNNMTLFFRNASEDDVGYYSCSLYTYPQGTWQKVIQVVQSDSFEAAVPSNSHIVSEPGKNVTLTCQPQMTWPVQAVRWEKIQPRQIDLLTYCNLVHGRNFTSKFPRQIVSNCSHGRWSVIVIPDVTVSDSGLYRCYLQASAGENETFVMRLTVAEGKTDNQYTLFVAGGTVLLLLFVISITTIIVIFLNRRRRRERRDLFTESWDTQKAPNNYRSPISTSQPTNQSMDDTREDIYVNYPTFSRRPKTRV

[3] = target: T2, endogenous CD226 on primary human T cells (human, UniProt Q15762 19-336); test: TR-FRET on primary human T cells with fluorophore-conjugated anti-TIGIT (clone 1F4) and anti-CD226
T2 construct: whole, on cells
T2 sequence (looked up): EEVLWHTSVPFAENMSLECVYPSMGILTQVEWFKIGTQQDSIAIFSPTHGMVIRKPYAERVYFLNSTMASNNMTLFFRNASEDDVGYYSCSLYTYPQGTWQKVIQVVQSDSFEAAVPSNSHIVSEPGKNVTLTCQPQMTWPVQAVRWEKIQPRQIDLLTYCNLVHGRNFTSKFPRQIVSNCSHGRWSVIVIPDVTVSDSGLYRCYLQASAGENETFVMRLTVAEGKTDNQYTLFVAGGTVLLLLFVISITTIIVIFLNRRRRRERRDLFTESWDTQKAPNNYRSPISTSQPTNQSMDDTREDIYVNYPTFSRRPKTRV
Description: Primary human T cells were stimulated in vitro with anti-CD3 and anti-CD28 antibodies, sorted on the basis of TIGIT expression, rested, re-stimulated, and labeled with antibodies against endogenous TIGIT and CD226 that were conjugated to fluorophores compatible with TR-FRET. TIGIT-expressing T cells labeled with donor-conjugated anti-TIGIT and acceptor-conjugated anti-CD226 antibodies yielded a strong FRET signal (FIG. 30).
Human anti-TIGIT (Genentech clone 1F4), anti-CD226 (Santa Cruz Biotechnology), and anti-HVEM (eBioscience) antibodies were conjugated fluorophores compatible with TR-FRET (Cisbio). Primary human T cells were MACS-enriched from blood, stimulated in vitro with plate bound anti-CD3 and anti-CD28 for 72 hours. TIGIT-expressing and non-expressing T cells (all expressing CD226) were then sorted, rested without stimulation for 72 hours, and re-stimulated for 48 hours. […] T cells were then seeded at 400,000 cells/well in a white 96-well plate (Costar) and TR-FRET was recorded at 665 nm for 400 μs after a 60 μs delay following laser excitation at 343 nm using a PHERAstar plate reader (BMG Labtech). FRET intensity was expressed as the signal at 665 nm from cells labeled with Ab-Lumi4-Tb+Ab-d2 minus the signal at 665 nm from the same batch of cells labeled with Ab-Lumi4-Tb alone. […]

[4] = target: B1; test: TR-FRET ratio between Flag-ST-CD226 and HA-TIGIT Q56R

**Q.** Does B1 bind (TR-FRET on COS-7 cells)?
**A.** binds

B2: HA-TIGIT (N-terminus HA-tagged human TIGIT, expressed on transfected COS-7 or CHO cells) (receptor, UniProt Q495A1 22-244, looked up)
chain: MMTGTIETTGNISAEKGGSIILQCHLSSTTAQVTQVNWEQQDQLLAICNADLGWHISPSFKDRVAPGPGLGLTLQSLTVNDTGEYFCIYHTYPDGTYTGRIFLEVLESSVAEHGARFQIPLLGAMAATLVVICTAVIVVVALTRKKKALRIHSVEGDLRRKSAGQEEWSPSAPSPPGSCVQAEAAPAGLCGEQRGEDCAELHDYFNVLSYRSLGNCSFFTETG
notes: whole, on cells; It is treated here as one construct; also called TIGIT-HA; HA-TIGIT (WT); not shown: HA tag at the N-terminus
**Q.** Does B2 bind [1]?
**A.** binds

**Q.** Does B2 bind [2]?
**A.** binds

B3: endogenous TIGIT on primary human T cells (receptor, UniProt Q495A1 22-244, looked up)
chain: MMTGTIETTGNISAEKGGSIILQCHLSSTTAQVTQVNWEQQDQLLAICNADLGWHISPSFKDRVAPGPGLGLTLQSLTVNDTGEYFCIYHTYPDGTYTGRIFLEVLESSVAEHGARFQIPLLGAMAATLVVICTAVIVVVALTRKKKALRIHSVEGDLRRKSAGQEEWSPSAPSPPGSCVQAEAAPAGLCGEQRGEDCAELHDYFNVLSYRSLGNCSFFTETG
notes: whole, on cells
**Q.** Does B3 bind [3]?
**A.** binds

B4: HA-TIGIT Q56R (receptor, UniProt Q495A1 22-244, looked up)
chain: MMTGTIETTGNISAEKGGSIILQCHLSSTTAQVTRVNWEQQDQLLAICNADLGWHISPSFKDRVAPGPGLGLTLQSLTVNDTGEYFCIYHTYPDGTYTGRIFLEVLESSVAEHGARFQIPLLGAMAATLVVICTAVIVVVALTRKKKALRIHSVEGDLRRKSAGQEEWSPSAPSPPGSCVQAEAAPAGLCGEQRGEDCAELHDYFNVLSYRSLGNCSFFTETG
notes: whole, on cells; also called Q56R TIGIT; not shown: HA tag
**Q.** Does B4 bind [4]?
**A.** binds
